# Test results reported in the supplement of paper PMC6757056.
# ± gives the standard deviation of the averaged measurements.
# B1: library; a variant is named by its letters at N, in order (parent)
# chain: GCUGUCACCGAGAAACUGUGAAGUAUAUCUUAAACCUGGGCACUUAAAAGAUAUAUGGAGUUAGUAGUGCAACCUGCUCGGUCUGAUGAGUCCNNNNNNGGACGAAACAGC
# Experiments:
# cyclic di-GMP [1] = variants of: B1; assay: normalized RNA/DNA level without ligand (relative to sTRSVctl = 100) (log10 (% of sTRSVctl)); HEK293T; ligand: cyclic di-GMP (c-di-GMP-II aptamer); higher = less ribozyme self-cleavage, higher mRNA level; settings: reporter: mCherry (pCS4076), ligand present: no
# Outline: (§1)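 For each 6-well well, 4 µg of library plasmid encoding mCherry-linked ribozyme switches, or eGFP-linked ones in some ligand experiments, was transfected into HEK293T. Any ligand was added 1 h before transfection, and RNA was extracted with EDTA 72 h after it, then reverse-transcribed, amplified, barcoded and sequenced. RNA level was obtained by dividing RNA reads by DNA reads, normalizing to a spiked-in non-cleaving sequence or to the top sequences, then scaling and log-transforming. The top set was 25 sequences, scaling was ×100 with log10, and ≥100 DNA reads were required.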
# cyclic di-GMP [2] = variants of: B1; assay: normalized RNA/DNA level with ligand (relative to sTRSVctl = 100) (log10 (% of sTRSVctl)); HEK293T; ligand: cyclic di-GMP (c-di-GMP-II aptamer); ligand concentration (+) RNA-Seq: 1 mM; higher = less ribozyme self-cleavage, higher mRNA level; settings: reporter: mCherry (pCS4076), ligand present: yes
# Outline: as §1
Variant,normalized RNA/DNA level without ligand (log10) (cyclic di-GMP [1]),normalized RNA/DNA level with ligand (log10) (cyclic di-GMP [2])
UGGAUG,1.62 ± 0.027,1.82 ± 0.11
UGGAUU,1.669 ± 0.0092,1.81 ± 0.13
UGGAUA,1.65 ± 0.043,1.8 ± 0.11
UGGAUC,1.699 ± 0.0067,1.88 ± 0.097
AGCGGG,1.76 ± 0.043,1.9 ± 0.083
AGCGGC,1.731 ± 0.0051,1.87 ± 0.074
AGCGGA,1.52 ± 0.056,1.67 ± 0.086
CGGCCU,1.74 ± 0.018,1.88 ± 0.11
CGGCCC,1.937 ± 0.016,1.94 ± 0.061
CGGCCG,1.81 ± 0.035,1.87 ± 0.11
UGGGCC,1.94 ± 0.036,1.97 ± 0.081
UGGGCG,1.84 ± 0.035,1.92 ± 0.13
UGGGCA,1.835 ± 0.0077,1.93 ± 0.08
UGGGCU,1.81 ± 0.042,1.89 ± 0.089
UGCUAC,1.7 ± 0.033,1.85 ± 0.069
UGCUAG,1.71 ± 0.031,1.9 ± 0.048
UGCUAU,1.676 ± 0.0088,1.83 ± 0.13
UGCUAA,1.695 ± 0.0079,1.87 ± 0.09
GGCUUC,1.75 ± 0.064,1.82 ± 0.12

Variant,normalized RNA/DNA level without ligand (log10) (cyclic di-GMP [1]),normalized RNA/DNA level with ligand (log10) (cyclic di-GMP [2])
GGCUUG,1.64 ± 0.062,1.851 ± 0.0082
GGCUUA,1.61 ± 0.074,1.79 ± 0.12
GGCUUU,1.73 ± 0.03,1.88 ± 0.075
GGGUCA,1.828 ± 0.013,1.91 ± 0.16
GGGUCC,1.91 ± 0.098,1.95 ± 0.14
UGGCCA,1.79 ± 0.029,1.86 ± 0.12
UGGCCG,1.9 ± 0.067,1.96 ± 0.1
UGGCCC,1.88 ± 0.062,1.96 ± 0.094
UGGCCU,1.84 ± 0.12,1.97 ± 0.15
UGGUCC,1.86 ± 0.085,1.98 ± 0.085
UGGUCA,1.78 ± 0.061,1.89 ± 0.067
UGGUCU,1.75 ± 0.048,1.91 ± 0.11
GGCGUG,1.75 ± 0.017,1.86 ± 0.15
GGCGUC,1.68 ± 0.077,1.79 ± 0.17
GGCGUA,1.6 ± 0.017,1.74 ± 0.13
CGCUUC,1.62 ± 0.051,1.81 ± 0.081
CGCUUG,1.73 ± 0.043,1.88 ± 0.055
GGGUGC,1.749 ± 0.006,1.85 ± 0.093
CGGAAG,1.745 ± 0.015,1.86 ± 0.1

Variant,normalized RNA/DNA level without ligand (log10) (cyclic di-GMP [1]),normalized RNA/DNA level with ligand (log10) (cyclic di-GMP [2])
CGGAAC,1.45 ± 0.077,1.62 ± 0.14
AGGAGC,1.61 ± 0.065,1.7 ± 0.13
AGGAGU,1.52 ± 0.084,1.67 ± 0.058
AGGAGG,1.6462 ± 0.0014,1.74 ± 0.1
CGGCUG,1.74 ± 0.087,1.87 ± 0.12
CGGCUC,1.782 ± 0.0084,1.85 ± 0.085
AGCGCU,1.7 ± 0.044,1.82 ± 0.17
AGCGCG,1.708 ± 0.0043,1.83 ± 0.12
AGCUGU,1.667 ± 0.01,1.8 ± 0.073
AGCUGG,1.64 ± 0.043,1.81 ± 0.12
AGCUGA,1.58 ± 0.16,1.72 ± 0.067
CGGUGC,1.785 ± 0.007,1.9 ± 0.12
CGCGUC,1.77 ± 0.062,1.88 ± 0.15
CGCGUG,1.62 ± 0.034,1.79 ± 0.12
CGCGUU,1.67 ± 0.021,1.86 ± 0.12
CGGGAC,1.669 ± 0.012,1.79 ± 0.085
CGGGAU,1.49 ± 0.05,1.64 ± 0.13
GGGGUA,1.52 ± 0.018,1.62 ± 0.13
GGGGUC,1.654 ± 0.0072,1.79 ± 0.12
